The record followed here is US20220194999A1 (Janssen / Centocor, published 2022).

The target of assay [1] is T1, HLA-A*02:01 class I complex (conditional p*HLA*02:01, biotinylated heavy chain with beta2-microglobulin) (human, biotinylated heavy chain).
T1 construct: UV-labile peptide p* is cleaved and exchanged for the test peptide; also called HLA 2.1
The assay can be described thus: UV peptide exchange, HLA class I ELISA, % of Pos peptide.
Excerpt: (§1) The HLA class I ELISA is an enzyme immunoassay based on the detection of beta2-microglobulin (B2M) of (peptide-stabilized) HLA class I complexes. To this end streptavidin is bound onto polystyrene microtiter wells. After washing and blocking, HLA complex present in exchange reaction mixtures or ELISA controls is captured by the streptavidin on the microtiter plate via its biotinylated heavy chain. Non-bound material is removed by washing. Subsequently, horseradish peroxidase (HRP)-conjugated antibody to human B2M is added. […] In the latter case B2M is removed during the washing step. After removal of non-bound HRP conjugate by washing, a substrate solution is added to the wells. A colored product is formed in proportion to the amount of intact HLA complex present in the samples. After the reaction has been terminated by the addition of a stop solution, absorbance is measured in a microtiter plate reader. The absorbance is normalized to the absorbance of an exchange control peptide (represents 100%). Also, suboptimal HLA binding of peptides with a moderate to low affinity for HLA class I molecules can be detected by this ELISA technique
(§2) Coating wells of two NUNC MaxiSorp™ 96-well ELISA plates: only the contents of one coating buffer capsule were dissolved in 100 mL of distilled water (0.05 M carbonate-bicarbonate buffer, pH 9.6 at 25° C.). 46 μL of Streptavidin stock solution were added to 23 mL coating buffer. 100 μL of the Streptavidin stock solution were added to all wells. Each microtiter plate was covered with an adhesive seal and incubated overnight at room temperature (18-25° C.).

Assay [2] concerns the target T1, HLA-A*02:01 class I complex …. The assay is described as above. This is another data set of the same source.
Excerpt: as §1, §2
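Wherever Average % is given: Streptavidin-captured HLA complexes after exchange detected via HRP anti-human B2M antibody, absorbance read, colour scales with intact complex, normalized to exchange control peptide as 100%.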
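Wherever Exch I (%) is given: Streptavidin-captured HLA complexes after exchange detected via HRP anti-human B2M antibody, absorbance read, colour scales with intact complex, normalized to exchange control peptide as 100%.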
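Wherever Exch II (%) is given: Streptavidin-captured HLA complexes after exchange detected via HRP anti-human B2M antibody, absorbance read, colour scales with intact complex, normalized to exchange control peptide as 100%.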

Take RLIHRDLAV (also called M242) [ERBB2_V842I5 mimic peptide RLIHRDLAV]: in assay [1], the Average % was found to be 73.6%, the “Exch I (%)” value stood at 69.9% and the “Exch II (%)” value was 77.3%.
RMIHRDLAL (also called M241; ERBB2_V842110) [ERBB2_V842I10 mimic peptide RMIHRDLAL]: in assay [1], the Average % is 53.7%, the “Exch I (%)” value turned out to be 51.5% and the “Exch II (%)” value is 55.8%.
Take RMIHRDLAV (also called M243; ERBB2_V84216) [ERBB2_V842I6 mimic peptide RMIHRDLAV]: in assay [1], the Average % was 57.6%, the “Exch I (%)” value is 56.7% and the “Exch II (%)” value is 58.5%.
With VMSDAISAL (also called M124; SOX17.S40317) [SOX17.S403I7 mimic peptide VMSDAISAL], in assay [1], the Average % came to 77.4%, the “Exch I (%)” value worked out at 75.3% and the “Exch II (%)” value stood at 79.5%.
Turning to VVSDAISAV (also called M120; SOX17.S4031) [SOX17.S403I mutant peptide VVSDAISAV], in assay [1], the Average % came to 86.2%, the “Exch I (%)” value was 88.5% and the “Exch II (%)” value was found to be 83.8%.
Regarding VLSDAISAL (also called M123; SOX17_S40316) [SOX17_S403I6 mimic peptide VLSDAISAL], in assay [1], the Average % worked out at 87.3%, the “Exch I (%)” value amounted to 91.9% and the “Exch II (%)” value came out at 82.6%.
The like results for VMSDAISAV (also called M122; SOX17_S40313) [SOX17_S403I3 mimic peptide VMSDAISAV] were, in that order, 92.4%, 96.9% and 87.9%.
For QLWVDSTPI (also called M181) [TP53_P152L3 mimic peptide QLWVDSTPI] the same measures were 67.9%, 62% and 73.8%.
For QLWVDSTPV (also called M182) [TP53_P152L4 mimic peptide QLWVDSTPV] the same measures were 95.7%, 95.6% and 95.7%.
On to CYLYYYSYLV (also called M102) [PTEN R173C6 mimic peptide CYLYYYSYLV], for which the “average relative binding (%)” value in assay [2] is less than 15%. Also, in assay [1], the Average % came to 10.7%, the “Exch I (%)” value was 10.4% and the “Exch II (%)” value was 10.9%.
In the case of CYLYYYSYLI (also called M105) [PTEN.R173C10 mimic peptide CYLYYYSYLI], in assay [1], the Average % was 23.3%, the “Exch I (%)” value worked out at 27.8% and the “Exch II (%)” value is 18.9%.
For the molecule CYMYYYSYLL (also called M104) [PTEN.R173C3 mimic peptide CYMYYYSYLL], the “average relative binding (%)” value in assay [2] was less than 15%. Further, in assay [1], the Average % stood at 8.5%, the “Exch I (%)” value was found to be 8.3% and the “Exch II (%)” value worked out at 8.7%.
On to LLGRNSFEL (also called M221) [TP53_V272M2 mimic peptide LLGRNSFEL], for which, in assay [1], the Average % turned out to be 98.4%, the “Exch I (%)” value is 101% and the “Exch II (%)” value is 95.7%.
For LLGRNSFEI (also called M222) [TP53_V272M3 mimic peptide LLGRNSFEI] the same measures were 66.7%, 75.3% and 58%.
For MIFSKRHWA (also called M010) [CIC.R215W mutant peptide MIFSKRHWA], the “average relative binding (%)” value in assay [2] is less than 15%. Besides, in assay [1], the Average % was found to be 6.2%, the “Exch I (%)” value was determined as 6.2% and the “Exch II (%)” value amounted to 6.1%.
Turning to ILNREIDFV (also called M091) [PIK3CA_G118D5 mimic peptide ILNREIDFV], in assay [1], the Average % is 70.4%, the “Exch I (%)” value was determined as 62.1% and the “Exch II (%)” value was 78.7%.
For IMNREIDFV (also called M092) [PIK3CA_G118D6 mimic peptide IMNREIDFV] the same measures were 66.7%, 68.6% and 64.9%.
For ILNREIDFL (also called M093) [PIK3CA_G118D9 mimic peptide ILNREIDFL] the same measures were 56.2%, 51.1% and 61.3%.
On to MMFSKRHWV (also called M013) [CIC_R215W7 mimic peptide MMFSKRHWV], for which, in assay [1], the Average % amounted to 74.4%, the “Exch I (%)” value came out at 76.2% and the “Exch II (%)” value turned out to be 72.6%.
As to MLFSKRHWV (also called M012) [CIC_R215W6 mimic peptide MLFSKRHWV], in assay [1], the Average % was found to be 74.3%, the “Exch I (%)” value stood at 74.8% and the “Exch II (%)” value came to 73.8%.
For the molecule MMFSKRHWI (also called M011) [CIC_R215W15 mimic peptide MMFSKRHWI], in assay [1], the Average % worked out at 42.8%, the “Exch I (%)” value is 40.4% and the “Exch II (%)” value is 45.3%.
As to LVVVGAAGV (also called M050) [KRAS.G12A mutant peptide LVVVGAAGV], the “average relative binding (%)” value in assay [2] is less than 15%. In assay [1], the Average % is 6.4%, the “Exch I (%)” value is 6.6% and the “Exch II (%)” value is 6.2%.
As for LMVVGAAGV (also called M052) [KRAS_G12A3 mimic peptide LMVVGAAGV], in assay [1], the Average % stood at 51.3%, the “Exch I (%)” value worked out at 51% and the “Exch II (%)” value stood at 51.5%.
The like results for LMVVGAVGV (also called M072) [KRAS_G12V3 mimic peptide LMVVGAVGV] were, in that order, 36.1%, 39% and 33.3%.
As for LLVVGACGV (also called M061) [KRAS_G12C2 mimic peptide LLVVGACGV], in assay [1], the Average % was found to be 34.8%, the “Exch I (%)” value turned out to be 36.4% and the “Exch II (%)” value turned out to be 33.1%.
With LLVVGAVGV (also called M071) [KRAS_G12V2 mimic peptide LLVVGAVGV], in assay [1], the Average % worked out at 35.9%, the “Exch I (%)” value worked out at 31.8% and the “Exch II (%)” value worked out at 40.1%.
In the case of GLKDLLNPV (also called M081) [PIK3CA_E453K5 mimic peptide GLKDLLNPV], in assay [1], the Average % turned out to be 74.9%, the “Exch I (%)” value is 73.5% and the “Exch II (%)” value came to 76.3%.
The like results for GMKDLLNPV (also called M082) [PIK3CA_E453K6 mimic peptide GMKDLLNPV] were, in that order, 77.5%, 74.7% and 80.4%.
The like results for AMNNMFCQV (also called M162) [TP53_K132N6 mimic peptide AMNNMFCQV] were, in that order, 70.1%, 69.4% and 70.8%.
YLDCGIHSL (also called M034) [CTNNB1.S33C9 mimic peptide YLDCGIHSL]: in assay [2], the “average relative binding (%)” value was greater than 100%. Moreover, in assay [1], the Average % came to 107%, the “Exch I (%)” value came out at 103% and the “Exch II (%)” value came to 111%.
As for YMDCGIHSL (also called M021) [CTNNB1_S33C10 mimic peptide YMDCGIHSL], the “average relative binding (%)” value in assay [2] was greater than 100%. In assay [1], the Average % was found to be 106%, the “Exch I (%)” value was determined as 108% and the “Exch II (%)” value was found to be 103%.
The like results for YMDCGIHSV (also called M023) [CTNNB1_S33C6 mimic peptide YMDCGIHSV] were, in that order, greater than 100%, 108%, 101% and 115%.
With NMDEYVHNV (also called M111) [SF3B1_R625H5 mimic peptide NMDEYVHNV], in assay [1], the Average % came out at 83.6%, the “Exch I (%)” value was 86.6% and the “Exch II (%)” value was 80.6%.
For NMDEYVHNI (also called M115) [SF3B1.R625H13 mimic peptide NMDEYVHNI] the same measures were 68.4%, 73.6% and 63.1%.
For NLDEYVHNI (also called M116) [SF3B1.R625H14 mimic peptide NLDEYVHNI] the same measures were 70.1%, 71.1% and 69%.
Take NLDEYVHNL (also called M114) [SF3B1.R625H10 mimic peptide NLDEYVHNL]: in assay [1], the Average % is 55.1%, the “Exch I (%)” value came out at 57.2% and the “Exch II (%)” value was determined as 53%.
As for NLDEYVHNV (also called M112) [SF3B1_R625H6 mimic peptide NLDEYVHNV], in assay [1], the Average % turned out to be 88.2%, the “Exch I (%)” value came to 88.1% and the “Exch II (%)” value turned out to be 88.4%.
The like results for GLAPPQLLV (also called M141) [TP53_H193L5 mimic peptide GLAPPQLLV] were, in that order, 42.2%, 40.3% and 44.1%.
With GLAPPQYLV (also called M151) [TP53_H193Y5 mimic peptide GLAPPQYLV], in assay [1], the Average % came out at 48.2%, the “Exch I (%)” value is 48.8% and the “Exch II (%)” value worked out at 47.6%.
The like results for GMAPPQYLV (also called M152) [TP53_H193Y6 mimic peptide GMAPPQYLV] were, in that order, 21.4%, 22.5% and 20.3%.
The like results for KLYPVQLWI (also called M134) [TP53.C141Y12 mimic peptide KLYPVQLWI] were, in that order, 73.9%, 81.3% and 66.4%.
Take KMYPVQLWV (also called M132) [TP53_C141Y3 mimic peptide KMYPVQLWV]: in assay [1], the Average % worked out at 76.9%, the “Exch I (%)” value came to 72.7% and the “Exch II (%)” value came out at 81%.
Consider SMTCTYFPL (also called M211) [TP53_S127F11 mimic peptide SMTCTYFPL], for which, in assay [1], the Average % came out at 53.5%, the “Exch I (%)” value came out at 56.4% and the “Exch II (%)” value was found to be 50.6%.
